Test results taken from US20030059429A1 (published 2003).
Where a chain is given by its changes, count along the chain named. Blank lines part the entries; values can stand above or below the binder they belong to.

Columns and labels:
Recombinant human IL-5 [1] = target: T1, Recombinant human IL-5 (human, UniProt P05113 20-134, 125I label (Bolton-Hunter reagent) in the receptor binding inhibition assay and the colony lifts; residues not stated); assay: cell-based or functional assay
Recombinant human IL-5 [2] = target: T1, Recombinant human IL-5; assay: optical biosensor (BIAcore), immobilized hIL-5, 25° C.
human IL-8 = human IL-8 (human, UniProt P10145 28-99, limits assumed); assay: ELISA, supernatants of the cloned lines
human IL-1β = human IL-1β (human, UniProt P01584 117-269); assay: ELISA, supernatants of the cloned lines
human IL-1α = target: T2, human IL-1α (human, UniProt P01583 113-271); assay: ELISA, supernatants of the cloned lines
T2 sequence (looked up): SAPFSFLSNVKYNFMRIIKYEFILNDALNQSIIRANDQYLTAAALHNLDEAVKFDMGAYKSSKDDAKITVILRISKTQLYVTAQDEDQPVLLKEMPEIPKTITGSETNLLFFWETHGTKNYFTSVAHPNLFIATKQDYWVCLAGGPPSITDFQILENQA

human IL-4 = target: T3, human IL-4 (human, UniProt P05112 25-153); assay: ELISA, supernatants of the cloned lines
T3 sequence (looked up): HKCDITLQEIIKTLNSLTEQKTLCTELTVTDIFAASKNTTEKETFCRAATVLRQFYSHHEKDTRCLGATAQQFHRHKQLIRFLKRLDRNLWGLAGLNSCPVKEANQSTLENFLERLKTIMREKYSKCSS

human TGFα = human TGFα (human, UniProt P01135 40-89); assay: ELISA, supernatants of the cloned lines
human M-CSF = target: T4, human M-CSF (human, UniProt P09603 33-190, limits assumed); assay: ELISA, supernatants of the cloned lines
T4 sequence (looked up): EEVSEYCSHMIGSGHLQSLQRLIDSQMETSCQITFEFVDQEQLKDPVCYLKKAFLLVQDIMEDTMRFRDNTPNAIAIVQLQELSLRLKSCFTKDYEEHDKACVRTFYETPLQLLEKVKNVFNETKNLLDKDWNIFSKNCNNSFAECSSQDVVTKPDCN

Recombinant human IL-5 [3] = target: T1, Recombinant human IL-5; assay: inhibition of 125I-IL-5 binding to IL-5R(α chain) from Drosophila membranes
Recombinant human IL-5 [4] = target: T1, Recombinant human IL-5; assay: cell-based or functional assay; remark: listed apart in the source
Recombinant human IL-5 [5] = target: T1, Recombinant human IL-5; assay: colony lift assay with iodinated IL-5, chain shuffled library

B1: murine monoclonal antibody 2E3 (antibody, IgG2a, V domains shown)
VH: PGLVAPSQSLSITCTVSGFSLTSYSVHWVRQPPGKGLEWLGVIWASGGTDYNSALMSRLSISKDNSKSQVFLKLNSLQTDDAAMYYCARDPPFSLLRLDFWGQGTTLTVSS
VL: SSLSVSAGEKVTMSCKSSQSLLNSGNQKNYLAWYQQKPGQPPKLLIYGASTRESGVPDRFTGSGSGTDFTLTISSVQAEDLAVYYCQNDHSFPFTFGSGTELEIK
notes: also called mAb 2E3; hybridoma SK119-2E3.39.40.2
inhibition of proliferation of murine B13 cells (Recombinant human IL-5 [1]): > 70% | Kd (Recombinant human IL-5 [2]): 0.02 nM | binding result (human IL-8): no binding | binding result (human IL-1β): no binding | binding result (human IL-1α): no binding | binding result (human IL-4): no binding | binding result (human TGFα): no binding | binding result (human M-CSF): no binding | IC50 (Recombinant human IL-5 [3]): 1 nM | 100% Inhibition (pM), B13 cell proliferation (Recombinant human IL-5 [4]): 600 pM | Proliferation IC50 (pM), B13 cells (Recombinant human IL-5 [4]): 90 pM

B3: murine monoclonal antibody 2B6 (antibody, IgG1, V domains shown)
VH: QVQLKESGPGLVAPSQSLSITCTVSGFSLTSYSVHWVRQPPGKGLEWLGVIWASGGTDYNSALMSRLSISKDNSKSQVFLKLNSLQTDDTAMYYCARDPPSSLLRLDYWGQGTTLTVSS
VL: DIVMTQSPSSLSVSAGEKVTMSCKSSQSLLNSGNQKNYLAWYQQKPGQPPKLLIYGASTRESGVPDRFTGSGSGTDFTLSISSVQAEDLAVYYCQNVHSFPFTFGSGTELEIK
notes: also called mAb 2B6; murine 2B6
inhibition of proliferation of murine B13 cells (Recombinant human IL-5 [1]): > 70% | Kd (Recombinant human IL-5 [2]): 0.022 nM | binding result (human IL-8): no binding | binding result (human IL-1β): no binding | binding result (human IL-1α): no binding | binding result (human IL-4): no binding | binding result (human TGFα): no binding | binding result (human M-CSF): no binding | IC50 (Recombinant human IL-5 [3]): 1 nM | 100% Inhibition (pM), B13 cell proliferation (Recombinant human IL-5 [4]): 200 pM | Proliferation IC50 (pM), B13 cells (Recombinant human IL-5 [4]): 70 pM

B4: Fab 2 from the chain-shuffled library (2B6 Fd with a library light chain) (Fab, V domains shown)
VH: B3 VH
VL: B3 VL with D1E, I2L, S80T, V97D, F100Y, E109K
notes: not shown: constant part of the murine 2B6 Fd (CH1) and any tag from pMKFabGene3H
binding result (Recombinant human IL-5 [5]): binds

Now from value to binder:

inhibition of proliferation of murine B13 cells (Recombinant human IL-5 [1]): > 70% | Kd (Recombinant human IL-5 [2]): 0.013 nM | binding result (human IL-8): no binding | binding result (human IL-1β): no binding | binding result (human IL-1α): no binding | binding result (human IL-4): no binding | binding result (human TGFα): no binding | binding result (human M-CSF): no binding | IC50 (Recombinant human IL-5 [3]): 1 nM | 100% Inhibition (pM), B13 cell proliferation (Recombinant human IL-5 [4]): 340 pM | Proliferation IC50 (pM), B13 cells (Recombinant human IL-5 [4]): 150 pM
B2: murine monoclonal antibody 2F2 (antibody, V domains shown)
VH: B1 VH with Q78R, A82T, F93S, F100Y
VL: B1 VL
notes: also called mAb 2F2; hybridoma SK119-2F2.37.80.12

binding result (Recombinant human IL-5 [5]): binds
B5: Fab 15 from the chain-shuffled library (2B6 Fd with a library light chain) (Fab, V domains shown)
VH: B3 VH
VL: B3 VL with D1E, I2L, S80T, V97D, H98Y, F100Y, E109K
notes: as for B4
